Data published in patent publication US20250288675A1 (published 2025).

Legend:
[1] = target: T1, MAGE-A1 peptide on HLA-C*07:02 (human); test: killing
T1 peptide: VRFFFPSL

[2] = target: T2, MAGE-A1 peptide on HLA-A*02:01 (human); test: killing
T2 peptide: KVLEYVIKV

[3] = target: T3, PRAME peptide on HLA-A*02:01 (human); test: activation reporter or marker
T3 peptide: SLLQHLIGL
Text: (§1) Reporter HEK293T cells expressing exclusively HLA-A*02:01 and expressing a granzyme B-activated infrared fluorescent protein (IFP) were further engineered to express either MAGE-A1 or PRAME. The MAGE-A1 expressing cells were GFP-labeled, and the PRAME-positive cells were labeled with both GFP and CellTrace™ Violet to enable tracking in downstream flow cytometry readouts. When a TCR-T cell recognizes a target cell, it secretes cytotoxic granules into the target cell, triggering the target cell to become fluorescent (IFP-positive). The two target cells (i.e., PRAME- or MAGE-A1 positive) were mixed at a balanced ratio and co-cultured with MAGE-A1 TCR-T cells, PRAME TCR-T cells, or a multiplex product combining the two TCR-T cells. PRAME TCR-T cells and MAGE-A1 TCR-T cells were engineered from T cells from the same donor. The TCR-T cells corresponded to pan T cells engineered by lentivirus transduction using a delivery vector employing MGTM modification and co-delivering CD8α and CD8β co-receptor as described above (such as a Table 1). Donor-matched non-engineered T cells (NTC) were also included as a control. The experiment then measured the proportion of each subset of target (GFP-positive, MAGE-A1 target; GFP/CTV-positive, PRAME target) getting recognized and targeted by TCR-T cells as measured by the proportion of GFP or GFP/CTV becoming IFP-positive. […]

[4] = target: T3, PRAME peptide on HLA-A*02:01; test: killing
[5] = target: T2, MAGE-A1 peptide on HLA-A*02:01; test: activation reporter or marker
Text: as §1

[6] = target: T4, HPV16 E7 peptide on HLA-A*02:01 (human); test: killing
T4 peptide: YMLDLQPET

[7] = target: T5, MAGE-C2 peptide on HLA-B*07:02 (human); test: killing
T5 peptide: RAREFMELL

B1: MAGEA1-278-1479 (TCR, V domains shown)
Valpha: EDQVTQSPEALRLQEGESSSLNCSYTVSGLRGLFWYRQDPGKGPEFLFTLYSAGEEKEKERLKATLTKKESFLHITAPKPEDSATYLCAVSYGQNFVFGPGTRLSVLP
Vbeta: EAGVTQSPTHLIKTRGQQATLRCSPISGHTSVYWYQQALGLGLQFLLWYDEGEERNRGNFPPRFSGRQFPNYSSELNVNALELEDSALYLCASSLGQLNTEAFFGQGTRLTVV
[1]
  binding result: no recognition
[2]
  binding result: recognises
[3]
  binding result: no recognition

B2: PRAME-425-366 (TCR, V domains shown)
Valpha: AQTVTQSQPEMSVQEAETVTLSCTYDTSESDYYLFWYKQPPSRQMILVIRQEAYKQQNATENRFSVNFQKAAKSFSLKISDSQLGDAAMYFCAYRKTSYDKVIFGPGTSLSVIP
Vbeta: AAGVIQSPRHLIKEKRETATLKCYPIPRHDTVYWYQQGPGQDPQFLISFYEKMQSDKGSIPDRFSAQQFSDYHSELNMSSLELGDSALYFCASSFARLEGRDNEQFFGPGTRLTVL
[4]
  binding result: recognises
[5]
  binding result: no recognition

B3: MAGEA1 TCR 32-41 (TCR, V domains shown)
Valpha: TQLLEQSPQFLSIQEGENLTVYCNSSSVFSSLQWYRQEPGEGPVLLVTVVTGGEVKKLKRLTFQFGDARKDSSLHITAAQPGDTGLYLCAGDESISYGKLTFGQGTILTVHP
Vbeta: DAGVIQSPRHEVTEMGQEVTLRCKPISGHDYLFWYRQTMMRGLELLIYFNNNVPIDDSGMPEDRFSAKMPNASFSTLKIQPSEPRDSAVYFCASSFLGWNEKLFFGSGTQLSVL
[1]
  binding result: recognises
[2]
  binding result: no recognition

B4: E7-11-28 (TCR, V domains shown)
Valpha: GQQVMQIPQYQHVQEGEDFTTYCNSSTTLSNIQWYKQRPGGHPVFLIQLVKSGEVKKQKRLTFQFGEAKKNSSLHITATQTTDVGTYFCAGIGSSNTGKLIFGQGTTLQVKP
Vbeta: EPEVTQTPSHQVTQMGQEVILRCVPISNHLYFYWYRQILGQKVEFLVSFYNNEISEKSEIFDDQFSVERPDGSNFTLKIRSTKLEDSAMYFCAITGRVSYEQYFGPGTRLTVT
[6]
  binding result: recognises

B5: MAGEC2 TCR 8-3 (TCR, V domains shown)
Valpha: ILNVEQSPQSLHVQEGDSTNFTCSFPSSNFYALHWYRWETAKSPEALFVMTLNGDEKKKGRISATLNTKEGYSYLYIKGSQPEDSATYLCASGSGGATNKLIFGTGTLLAVQP
Vbeta: GEEVAQTPKHLVRGEGQKAKLYCAPIKGHSYVFWYQQVLKNEFKFLISFQNENVFDETGMPKERFSAKCLPNSPCSLEIQATKLEDSAVYFCASSQSRSLRGTEAFFGQGTRLTVV
[7]
  binding result: recognises
